Reference: patent US20110152352A1 (TUFTS UNIVERSITY, published 2011)

B1: inhibitor Smad6 (other, UniProt O43541 1-496, looked up)
chain: MFRSKRSGLVRRLWRSRVVPDREEGGSGGGGGGDEDGSLGSRAEPAPRAREGGGCGRSEVRPVAPRRPRDAVGQRGAQGAGRRRRAGGPPRPMSEPGAGAGSSLLDVAEPGGPGWLPESDCETVTCCLFSERDAAGAPRDASDPLAGAALEPAGGGRSREARSRLLLLEQELKTVTYSLLKRLKERSLDTLLEAVESRGGVPGGCVLVPRADLRLGGQPAPPQLLLGRLFRWPDLQHAVELKPLCGCHSFAAAADGPTVCCNPYHFSRLCGPESPPPPYSRLSPRDEYKPLDLSDSTLSYTETEATNSLITAPGEFSDASMSPDATKPSHWCSVAYWEHRTRVGRLYAVYDQAVSIFYDLPQGSGFCLGQLNLEQRSESVRRTRSKIGFGILLSKEPDGVWAYNRGEHPIFVNSPTLDAPGGRALVVRKVPPGYSIKVFDFERSGLQHAPEPDAADGPYDPNSVRISFAKGWGPCYSRQFITSCPCWLEILLNNPR
B2: GST-Smad1 (MH1 domain) fusion protein (other, UniProt Q15797 12-136, looked up)
chain: PAVKRLLGWKQGDEEEKWAEKAVDALVKKLKKKKGAMEELEKALSCPGQPSNCVTIPRSLDGRLQVSHRKGLPHVIYCRVWRWPDLQSHHELKPLECCEFPFGSKQKEVCINPYHYKRVESPVLP
notes: domain: MH1; also called s1-n219; amino-terminal MH1 domain of Smad1; not shown: glutathione S-transferase (GST) tag
B3: RNA helicase p68 (human p68 cDNA construct, expressed in transfected Cos7 cells) (enzyme, UniProt P17844 1-614, looked up)
chain: MSGYSSDRDRGRDRGFGAPRFGGSRAGPLSGKKFGNPGEKLVKKKWNLDELPKFEKNFYQEHPDLARRTAQEVETYRRSKEITVRGHNCPKPVLNFYEANFPANVMDVIARQNFTEPTAIQAQGWPVALSGLDMVGVAQTGSGKTLSYLLPAIVHINHQPFLERGDGPICLVLAPTRELAQQVQQVAAEYCRACRLKSTCIYGGAPKGPQIRDLERGVEICIATPGRLIDFLECGKTNLRRTTYLVLDEADRMLDMGFEPQIRKIVDQIRPDRQTLMWSATWPKEVRQLAEDFLKDYIHINIGALELSANHNILQIVDVCHDVEKDEKLIRLMEEIMSEKENKTIVFVETKRRCDELTRKMRRDGWPAMGIHGDKSQQERDWVLNEFKHGKAPILIATDVASRGLDVEDVKFVINYDYPNSSEDYIHRIGRTARSTKTGTAYTFFTPNNIKQVSDLISVLREANQAINPKLLQLVEDRGSGRSRGRGGMKDDRRDRYSAGKRGGFNTFRDRENYDRGYSSLLKRDFGAKTQNGVYSAANYTNGSFGSNFVSAGIQTSFRTGNPTGTYQNGYDSTQQYGSNVPNMHNGMNQQAYAYPATAAAPMIGYPMPTGYSQ
notes: Present in nuclear extracts or total lysates of Cos7 cells transfected with the p68 construct; also called Ddx5; DDX5

Columns and labels:
[1] = target: B3; assay: in vitro pull-down, data not shown
[2] = target: B3; assay: GST pull-down from nuclear extracts of p68-transfected Cos7 cells, immunoblot with anti-p68
[3] = target: T1, GST-Smad4(FL) fusion protein (UniProt P08515 1-218 = GST; Q13485 1-552); assay: as above
T1 construct: also called s4
T1 sequence (P08515 1-218, tags or fused parts left off): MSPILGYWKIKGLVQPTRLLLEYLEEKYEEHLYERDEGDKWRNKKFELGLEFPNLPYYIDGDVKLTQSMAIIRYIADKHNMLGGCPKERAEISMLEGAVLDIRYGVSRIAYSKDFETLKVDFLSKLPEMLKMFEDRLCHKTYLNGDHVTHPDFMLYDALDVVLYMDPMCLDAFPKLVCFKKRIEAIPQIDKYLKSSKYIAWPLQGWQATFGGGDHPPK

**Q.** Does B1 bind [1]?
**A.** no binding

**Q.** Does B2 bind [2]?
**A.** no binding

**Q.** Does B3 bind [3]?
**A.** no binding
